Results published in article PMC11322411.

Target: GRK2-phosphorylated FLAG-tagged SMOOTHENED (near-full-length mouse SMO, residues 64-674) (mouse) (UniProt P56726)
Experiment: pull-down; purified FLAG-SMO forms (18.2 uM) mixed with PKA-C (10 uM), captured on anti-FLAG M1 sepharose beads, 4°C 2 h; 20 mM HEPES pH 7.5, 150 mM NaCl, 3 mM CaCl2, 10 mM MgCl2, 1 mM ATP, 0.025% GDN, 1 uM SAG21k; eluted with FLAG peptide and EDTA; stain-free SDS-PAGE, densitometry

UniProt P56726, sequence (P56726 64-674): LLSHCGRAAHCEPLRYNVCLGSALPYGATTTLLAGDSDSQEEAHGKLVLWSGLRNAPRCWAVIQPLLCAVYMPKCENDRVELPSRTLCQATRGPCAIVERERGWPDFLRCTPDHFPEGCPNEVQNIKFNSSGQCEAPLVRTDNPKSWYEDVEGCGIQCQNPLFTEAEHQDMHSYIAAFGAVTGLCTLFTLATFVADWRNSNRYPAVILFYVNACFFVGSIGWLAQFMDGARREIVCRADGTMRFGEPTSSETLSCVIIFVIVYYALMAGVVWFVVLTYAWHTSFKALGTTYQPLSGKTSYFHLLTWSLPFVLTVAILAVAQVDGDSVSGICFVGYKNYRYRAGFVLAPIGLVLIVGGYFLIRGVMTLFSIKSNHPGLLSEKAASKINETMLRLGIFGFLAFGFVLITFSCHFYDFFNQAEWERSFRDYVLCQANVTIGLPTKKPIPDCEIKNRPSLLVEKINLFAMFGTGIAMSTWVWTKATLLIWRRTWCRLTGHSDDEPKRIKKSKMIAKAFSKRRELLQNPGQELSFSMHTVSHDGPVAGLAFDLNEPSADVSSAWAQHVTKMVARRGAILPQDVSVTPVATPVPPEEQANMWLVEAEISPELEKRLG

PKA-C in the FLAG elution as percent of SMO: 25%
Substance: protein kinase A catalytic subunit (PKA-C), mouse (from UniProt P05132 1-351) (enzyme)
